Measured values taken from paper PMC5852647, “Structural basis of siRNA recognition by TRBP double‐stranded RNA binding domains”.
Numbering of substitutions follows the chain as printed.

T1: TRBP dsRBD12 M100C/C158S (human, UniProt Q15633 16-158+=T+159-227, C73A;M100C;C158S;C196V;internal_change)
T1 sequence: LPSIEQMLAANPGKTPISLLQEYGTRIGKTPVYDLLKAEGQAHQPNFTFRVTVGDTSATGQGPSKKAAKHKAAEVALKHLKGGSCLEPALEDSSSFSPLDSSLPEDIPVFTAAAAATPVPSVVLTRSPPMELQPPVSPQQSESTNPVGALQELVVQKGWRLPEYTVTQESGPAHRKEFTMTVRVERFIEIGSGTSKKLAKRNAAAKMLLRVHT

T2: TRBP dsRBD12 M100S (human, UniProt Q15633 16-158+=T+159-227, C73A;M100S;C196V;internal_change)
T2 sequence: T1 sequence with C85S, S143C

T3: TRBP dsRBD12 Cy3B-CF660R (doubly labeled) (human, UniProt Q15633 16-158+=T+159-227, C73A;M100C;C196V;internal_change)
T3 sequence: T1 sequence with S143C

B1: EL86 siRNA, Cy3B-labeled (dsRNA)
RNA 1: UUAAUUAUCUAUUCCGUACUU
RNA 2: GUACGGAAUAGAUAAUUAAUU
modifications: 3' biotin on EL86up; 3' amino modifier on EL86down
B2: EL86 siRNA (dsRNA)
RNA 1: UUAAUUAUCUAUUCCGUACUU
RNA 2: GUACGGAAUAGAUAAUUAAUU

Tests used:
TRBP dsRBD12 M100C/C158S = biological target: T1, TRBP dsRBD12 M100C/C158S; assay: single-molecule FRET; 25 mM KCl; two configurations; smFRET: 20 mM Tris-HCl pH 7.4, 125 mM KCl (affinity) or 25 mM KCl (orientation), 15 nM BSA, 0.001% Tween-20, 295 K; NMR buffer not in material; conditions: protein: recombinant; tags: CF660R at C100; label: Cy3B at 3' end of EL86down; 19 bp, 3' overhang 2 nt (UU) on both strands
TRBP dsRBD12 M100S = biological target: T2, TRBP dsRBD12 M100S; assay: as above; conditions: protein: recombinant; tags: CF660R at C158; label: Cy3B at 3' end of EL86down; 19 bp, 3' overhang 2 nt (UU) on both strands
[1] = biological target: T3, TRBP dsRBD12 Cy3B-CF660R (doubly …); assay: single-molecule FRET titration; 125 mM KCl, 20 mM Tris-HCl pH 7.4, 295 K; smFRET: 20 mM Tris-HCl pH 7.4, 125 mM KCl (affinity) or 25 mM KCl (orientation), 15 nM BSA, 0.001% Tween-20, 295 K; NMR buffer not in material; conditions: protein: recombinant; tags: Cy3B and CF660R at C100 and C158; pET47b(+)-based vector; 19 bp, 3' overhang 2 nt (UU) on both strands

Binder	binding result (TRBP dsRBD12 M100C/C158S)	binding result (TRBP dsRBD12 M100S)	Kd [1]
B1	binds	binds	
B2			210 ± 30 pM
